Measured values reported in paper PMC10063554.

Experiments:
[1] = target: evolved PTH1R variant P34_05 (human) (UniProt Q03431); test: AlphaScreen or HTRF; binding of 40 nM M-PTH(1–14) to membrane fractions supplemented with increasing concentrations of mini-Gs; data relative to PTH1R without mini-Gs; EC50 of mini-Gs read through ligand occupancy, apparent
[2] = target: evolved PTH1R variant P34_13 (human) (UniProt Q03431); test: as above
[3] = target: SNAP-tagged NTR1-R167L (rat) (UniProt P20789); test: AlphaScreen or HTRF; whole HEK293T cells with SNAP-Lumi4-Tb-labelled NTR1; 2 nM HL488-NT(8–13) tracer with a range of unlabeled NT(8–13); 4 h on ice; 20 mM HEPES pH 7.5, 100 mM NaCl, 3 mM MgCl2, 0.02% BSA
Chain of UniProt P20789 (P20789 43-424 R167L): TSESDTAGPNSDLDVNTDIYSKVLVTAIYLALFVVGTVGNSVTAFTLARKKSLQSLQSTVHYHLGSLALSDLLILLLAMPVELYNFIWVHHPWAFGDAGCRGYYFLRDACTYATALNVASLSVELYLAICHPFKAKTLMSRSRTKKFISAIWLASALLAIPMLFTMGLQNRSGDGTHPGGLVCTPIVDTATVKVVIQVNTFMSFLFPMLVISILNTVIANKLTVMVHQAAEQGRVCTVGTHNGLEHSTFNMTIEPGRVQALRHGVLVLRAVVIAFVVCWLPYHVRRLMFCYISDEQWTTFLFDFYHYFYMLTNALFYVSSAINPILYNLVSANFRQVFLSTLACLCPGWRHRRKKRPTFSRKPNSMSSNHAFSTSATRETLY

Row | Substance | EC50 [1] | EC50 [2] | fold increase in affinity against wild-type NTR1 [3]
1 | Mini-Gs 393 | 280 nM | 380 nM | 
2 | Neurotensin 8–13 (peptide) |  |  | 3 fold
